In publication PMC8764033, “Single-molecule analysis of specificity and multivalency in binding of short linear substrate motifs to the APC/C” (Nature Communications, 2022):
Where “and” joins values, the source holds several entries; their conditions need not be identical. Equal entries are not always repeated.

Tests used:
[1] = target: T1, APC/C^Cdc20 (Saccharomyces cerevisiae, UniProt P26309+P53068); assay: SMOR assay, yeast APC/C^Cdc20; type: binding; details: for mean dwell time: representative of two independent experiments, ± SE, ligand ≤1 nM, buffer C + BSA
T1 construct: APC/C was purified from yeast cells; made in house; host or cells: APC/C from S. cerevisiae W303 strain NHY13 (Cdc16-TAP, Apc1-GFP, cdh1 deleted); Cdc20 from Sf9 (baculovirus)
Method: Yeast strains were derivatives of W303 and are listed in Supplementary Table 2. For APC/C purification, we used a strain carrying Cdc16-TAP and lacking Cdh1 (DOM1126); in most experiments, the strain also carried Apc1-GFP (NHY13). Yeast were grown in YPD media to OD600 = 0.8, collected and flash-frozen. Cells were lysed by bead beating in lysis buffer A (50 mM HEPES pH 7.5, 150 mM KCl, 10% glycerol, 0.2% Triton X-100, 63 µM B-glycerophosphate, 48 µM sodium fluoride, 1 µg ml^−1 pepstatin A, 1 µg ml^−1 leupeptin, 1 µg ml^−1 aprotinin, 1 mM PMSF, 1 mM DTT, 0.5 mM EDTA) and APC/C was purified using magnetic IgG beads. The beads were washed using wash buffer A (20 mM HEPES pH 7.5, 150 mM KCl, 10% Glycerol, 0.05% Triton X-100). After incubation with purified Cdh1 or Cdc20, the APC/C was cleaved off the beads with TEV protease in wash buffer A with 0.05% Tween-20 (for single-molecule studies) or 0.05% Triton X-100 (for ensemble assays such as ubiquitylation) and used immediately.
For all SMOR experiments, 24 × 50 mm high precision glass coverslips (Bioscience Tools) and drilled microscope slides were passivated with a combination of PEG and PEG-biotin (coverslips) or PEG only (slides) following a previously published protocol for SiMPull[31]. Reaction chambers (~20 µl) were created using double-sided tape and epoxy. Protein was immobilized on the surface with 0.2 mg ml^−1 NeutrAvidin in buffer C (20 mM HEPES pH 7.5, 150 mM KCl, 10% glycerol, 0.05% Tween-20, 1 mM DTT). Excess NeutrAvidin was washed away and incubated with either biotin-conjugated mouse monoclonal anti-Strep-Tag II antibody (LSBio, Cat. No. LS-C203632-100) or biotin-conjugated rabbit polyclonal anti-GFP antibody (Rockland, Cat. No. 600-406-215) diluted in buffer C + BSA (0.1 mg ml^−1; Molecular Biology Grade Bovine Serum Albumin). Activator WD40 and activated APC/C (typically 50 µl containing about 65 ng APC/C, of which only a small fraction is immobilized on the glass) were immobilized using anti-Strep-Tag II, while APC/C alone was immobilized with anti-GFP. SMOR results were similar when performed in the buffer (wash buffer B) used in polarization anisotropy.
To capture dynamic protein–protein interactions, dye-labeled substrate diluted in buffer C + BSA was added to the chamber containing immobilized proteins. Interactions were imaged by TIRF microscopy as described below. For optimal signal-to-noise ratio, peptide concentration was no greater than 1 nM. Protein substrates included Hsl1 aa 667–872 and a C-terminal HaloTag followed by a TAP tag, and were produced by translation in rabbit reticulocyte lysates using TnT Quick Coupled Transcription/Translation System (Promega) (see Supplementary Table 5 for plasmids). Protein was purified with magnetic IgG beads and labeled on the bead with JF549 or JF646 dye so that unbound dye could be washed away. Purified dye-labeled protein was then cleaved from the beads using TEV protease. Before adding substrate to the reaction chamber, oxygen scavenging reagents were added (10 nM protocatechuate-3,4-dioxygenase, 2.5 mM protocatechuic acid, and 1 mM Trolox)[41]. A detailed description of the SMOR analysis pipeline is found in Supplementary Note 1.
Microscopy was performed with a Nikon Eclipse TE2000-E with Perfect Focus with a 100 × 1.49na oil, Apo TIRF DIC N2, 0.13-0.2, WD0.12 objective. Movies were recorded using the Andor iXon DU-897E-CSO. For visualizing GFP-tagged protein, a 491 nm laser was used with an ET525/50 (Chroma) filter for emission. […]

[2] = tested on: APC/C^Cdh1; assay: Ensemble binding of radiolabeled Hsl1 fragments to APC/C^Cdh1 on magnetic beads; design: species or system yeast
Source text: Supplementary Fig. 2: APC/C activity with tagged substrates a, Methods for analysis of APC/C activity and substrate binding. b, APC/C ubiquitylation assay with ra d io lab e le d f u ll-len g th yS e cu rin , co mpa rin g wild-type APC/CCdh1 an d AP C/ CCdh1 with a GFP ta g o n A p c1 . c, Comparison of activities with APC/CCdh1, using either wild-type Cdh1 or Cdh1 with the N-terminal 2XStrep-Tag II. d, Comparison of activities with APC/CCdh1 and the Hsl1 fragment (667-872) with and without the C-terminal Halo tag. e, Binding of radiolabeled Hsl1 fragments to yeast APC/CCdh1 immobilized on magnetic beads. First lane (Inp, input) indicates the amount of labeled protein added to the beads prior to washing, second lane (+) indicates amount bound, and third lane (-) indicates background binding in absence of APC/CCdh1. f, Ubiquitylation of Halo-tagged Hsl1 fragment with APC/CCdh1 an d A P C/ CCdc20. Experiments we re pe rfo rme d o n ce (b, c) or twice ( d-f). Source data are provided as a Source Dat a file.
(1 picture or pasted object on this page, not shown here)

[3] = tested on: APC/C; details: APC/C^Cdc20 vs APC/C^Cdh1; cited from earlier work
Source text: We find that the yeast securin ...

B1: Hsl1^Halo KEN & D: Hsl1 fragment (amino acids 667–872) with C-terminal HaloTag, JF549-labeled (protein)
chain: QNSASKRSLYSLQSISKRSLNLNDLLVFDDPLPSKKPASENVNKSEPHSLESDSDFEILCDQILFGNALDRILEEEEDNEKERDTQRQRQNDTKSSADTFTISGVSTNKENEGPEYPTKIEKNQFNMSYKPSENMSGLSSFPIFEKENTLSSSYLEEQKPKRAALSDITNSFNKMNKQEGMRIEKKIQREQLQKKNDRPSPLKPIQ
modifications: JF549 or JF646 dye covalently bound to the HaloTag; left off: HaloTag, C-terminal, kept | TAP, C-terminal, cleaved
notes: Hsl1 fragment (amino acids 667–872) with C-terminal HaloTag, JF549-labeled
fold lower affinity/dwell time with APC/C^Cdc20 than with APC/C^Cdh1 (preference for APC/C^Cdh1) [1]: 600 fold | Dwell Time ([1]; Supplementary Table 1, replicate 1 (movie listed first)): 0.518 ± 0.032 s | Dwell Time ([1]; Supplementary Table 1, replicate 2 (movie listed second)): 0.396 ± 0.027 s | mean dwell time [1]: 0.518 ± 0.03 s and 0.518 s | mean dwell time ([1]; listed as Hsl1 fragment): 0.518 ± 0.03 s | binding to APC/C (in words) [2]: HaloTag does not affect ubiquitylation or binding | processivity of ubiquitylation (in words) [3]: more processively modified by APC/C^Cdh1
